Patent US6844171 (Harvard, dated 2005)

Tests used:
[1] = biological target: δ25-60(Y) peptide (regions B+C of the HDAg multimer-forming domain, with C-terminal tyrosine) (hepatitis delta virus (American strain)); assay: CD spectroscopy in PBS at 37° C.
[2] = biological target: the molecule itself; assay: glutaraldehyde cross-linking, MALDI-TOF mass spectrometry
[3] = biological target: δ12-49 peptide (regions A+B of the HDAg multimer-forming domain) (hepatitis delta virus (American strain)); assay: CD spectroscopy in PBS at 37° C.

## δ25-60(Y) peptide (regions B+C of the HDAg multimer-forming domain, with C-terminal tyrosine)
[1]
  [θ222]/[θ208] ratio (indicator of coiled-coil formation): 0.76

B1: recombinant small delta antigen (r-HDAg-S), full length, expressed in E. coli from plasmid pR5δV5 (other)
chain: SRSERRKDRGGREDILEQWVSGRKKLEELERDLRKLKKKIKKLEEDNPWLGNIKGIIGKKDKDGEGAPPAKKLRMDQMEIDAGPRKRPLRGGFTDKERQDHRRRKALENKRKQLSSGGKSLSREEEEELKRLTEEDEKRERRIAGPSVGGVNPLEGGSRGAPGGGFVPSMQGVPESPFARTGEGLDIRGSQGFP
notes: also called r-δAg-S; rδAg-S
[2]
  ratio of the masses of the cross-linked species to the monomer: 8.1

## GREDILEQWVSGRKKLEELERDLRKLKKKIKKLEEDNP [δ12-49 peptide (regions A+B of the HDAg multimer-forming domain)]
[3]
  [θ222]/[θ208] ratio (indicator of coiled-coil formation): 0.79
